For experiment [1], the target named is T1, human MIF treated with 0.2% Proclin300 (oxMIF surrogate) (human, UniProt P14174 1-115, treated with 0.2% Proclin300 to transform MIF into an oxMIF surrogate).
T1 chain: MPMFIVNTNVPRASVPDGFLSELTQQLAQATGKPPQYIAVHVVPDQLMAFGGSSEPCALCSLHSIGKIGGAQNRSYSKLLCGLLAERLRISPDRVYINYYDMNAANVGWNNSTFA
The experiment is described as follows: SPR. In general terms: Surface plasmon resonance follows binding to a sensor surface in real time, without labels.

Experiment [2] addresses mouse MIF treated with 0.2% Proclin300 (oxMIF surrogate) (mouse, UniProt P34884 1-115, treated with 0.2% Proclin300 to transform MIF into an oxMIF surrogate). Description: ELISA. (ELISA stands for enzyme-linked immunosorbent assay.)
The target of experiment [3] is T1, human MIF treated with 0.2% Proclin300 …. The experiment is described as follows: ELISA.

A word on the Kd: it is the concentration at which binding is half-saturated. Low readings indicate higher affinity, high ones lower affinity. By EC50 is commonly meant the concentration giving half of the maximal effect. A higher EC50 goes with a less potent agent.

B1: ON103 (antibody, V domains shown)
VH: EVQLQESGGGLVQPGGSLRLSCAASGFTFSIYSMNWVRQAPGKGLEWVSSIGSSGGTTYYADSVKGRFTISRDNSKNTLYLQMNSLRAEDTAVYYCAGSQYLYGMDVWGQGTTVTVSS
VL: DIQMTQSPSSLSASVGDRVTITCRSSQRILTYLNWYQQKPGKAPKLLIYVGSHSQSGVPSRFRGSGSETDFTLTISGLQSEDSATYYCQQSFFTPLTFGGGTKVEIK
In experiment [1], B1 yielded a dissociation constant Kd of 3.7 nM. For the same molecule, the EC50 is 4.6 nM in experiment [2] and 0.6 nM in experiment [3].

B2: C0008 (antibody, V domains shown)
VH: EVQLLESGGGLVQPGGSLRLSCAASGFTFSIYSMNWVRQAPGKGLEWVSSIGSSGGTTYYADSVKGRFTISRDNSKNTLYLQMNSLRAEDTAVYYCAGSQWLYGMDVWGQGTTVTVSS
VL: DIQMTQSPSSLSASVGDRVTITCRSSQRIMTYLNWYQQKPGKAPKLLIFVASHSQSGVPSRFRGSGSETDFTLTISGLQPEDSATYYCQQSFWTPLTFGGGTKVEIK
B2 registered a dissociation constant Kd in experiment [1] of 3.5 nM. Moreover, the EC50 stood at 3.1 nM in experiment [2] and 0.6 nM in experiment [3].

B3: ON203 (antibody, V domains shown)
VH: EVQLQESGGGLVQPGGSLRLSCAASGFTFSIYSMNWVRQAPGKGLEWVSSIGSSGGTTYYADSVKGRFTISRDNSKNTLYLQMNSLRAEDTAVYYCAGSQYLYGMDVWGQGTTVTVSS
VL: DIQMTQSPSSLSASVGDRVTITCRSSQRIMTYLNWYQQKPGKAPKLLIYVGSHSQSGVPSRFRGSGSETDFTLTISGLQPEDSATYYCQQSFFTPLTFGGGTKVEIK
Molecule B3 gave an equilibrium dissociation constant (Kd) in experiment [1] of 6.1 nM. Besides, the EC50 in experiment [2] amounted to 5.2 nM; in experiment [3], 0.7 nM.

The record behind these values is article PMC10157364 (2023).
